Laboratory results reported in article PMC8290593, “PTD-mediated delivery of α-globin chain into Κ-562 erythroleukemia cells and α-thalassemic (HBH) patients’ RBCs ex vivo in the frame of Protein Replacement Therapy” (Journal of Biological Research, 2021).

Target: the molecule itself
Test: SDS-PAGE and Western blot; recombinant protein extracts (bacterial inclusion bodies in 1 M L-Arg pH 8.0, and soluble proteins purified by Ni2+-NTA) on 15% SDS-PAGE, immunoblotted with anti-His.IgG

B1: 10xHis-Xa_(SITE)-α-globin-HA (natural protein)
chain: not shown
notes: A factor Xa site (Xa_(SITE), from pET-16b) lies between the 10xHis tag and α-globin. ~18.7 kDa as printed; also called α-monomer; recombinant α-globin chain; source: E. coli CD43 (DE3), pET-16b; also as bacterial inclusion bodies dissolved in 1 M L-Arg; not shown: 10xHis, N-terminal, kept; HA, C-terminal, kept
Does B1 bind?
Result: binds
